According to paper PMC3206016, “Putting into Practice Domain-Linear Motif Interaction Predictions for Exploration of Protein Networks” (PLoS ONE, 2011):
Ends that are not written are not given here. * marks the point of attachment. Biotin = O=C1N[C@H]2[C@H](CS[C@H]2CCCCC(=O)*)N1

B8: SCRIB-34/4 (MBP fusion of the tandem of the third and fourth PDZ domains of SCRIB) (domain or fragment)
chain: EGPYPVEEIRLPRAGGPLGLSIVGGSDHSSHPFGVQEPGVFISKVLPRGLAARSGLRVGDRILAVNGQDVRDATHQEAVSALLRPCLELSLLVRRDPAPPGLRELCIQKAPGERLGISIRGGARGHAGNPRDPTDEGIFISKVSPTGAAGRDGRLRVGLRLLEVNQQSLLGLTHGEAVQLLRSVGDTLTVLVCDGFE
notes: also called MBP-PDZ analyte SCRIB-34/4; tandem PDZ construct; source: E. coli BL21 DE3, purified (amylose column, Superdex 75 gel filtration)

What was measured:
Assay in all cases: SPR
Settings in all cases: both partners purified
[1] = molecular target: T1, MAGI1-2/6 (MBP fusion of the second of the six PDZ domains of MAGI1) (mouse, UniProt Q6RHR9-1 448-572)
T1 construct: source: E. coli BL21 DE3, purified (amylose column, Superdex 75 gel filtration)

[2] = molecular target: T2, MAGI1-3/6 (MBP fusion of the third of the six PDZ domains of MAGI1) (mouse, UniProt Q6RHR9-1 613-752)
T2 construct: source: E. coli BL21 DE3, purified (amylose column, Superdex 75 gel filtration)
T2 sequence (Q6RHR9 613-752): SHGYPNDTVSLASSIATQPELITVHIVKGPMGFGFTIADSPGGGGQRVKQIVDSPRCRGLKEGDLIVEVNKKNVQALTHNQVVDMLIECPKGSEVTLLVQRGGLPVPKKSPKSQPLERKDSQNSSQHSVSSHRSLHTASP

[3] = molecular target: T3, SCRIB-3/4 (MBP fusion of the third of the four PDZ domains of SCRIB) (human, UniProt Q14160-1 997-1093)
T3 construct: also called MBP-PDZ analyte SCRIB-3/4; source: E. coli BL21 DE3, purified (amylose column, Superdex 75 gel filtration)
T3 sequence (looked up): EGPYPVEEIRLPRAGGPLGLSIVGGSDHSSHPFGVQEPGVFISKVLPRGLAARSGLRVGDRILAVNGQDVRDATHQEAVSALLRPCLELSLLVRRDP

[4] = molecular target: B8
[5] = molecular target: T4, TAX1_05 (short peptide of the Trans-activating transcriptional regulatory protein of HTLV-1: GSGAG a (HTLV-1A, biotin at N-terminus))
T4 construct: source: synthetic peptide (JPT Peptide Technologies)

[6] = molecular target: T2, MAGI1-3/6 (MBP fusion of the third of …); remark: listed apart in the source
[7] = molecular target: T3, SCRIB-3/4 (MBP fusion of the third of …); remark: listed apart in the source
[8] = molecular target: B8; remark: listed apart in the source
[9] = molecular target: T2, MAGI1-3/6 (MBP fusion of the third of …); remark: listed apart in the source
[10] = molecular target: T3, SCRIB-3/4 (MBP fusion of the third of …); remark: listed apart in the source
[11] = molecular target: B8; remark: listed apart in the source
[12] = molecular target: T5, 16E6_05 (short peptide of HPV16 early protein E6: GSGAG and the last five residues) (human papilloma virus 16, biotin at N-terminus)
T5 construct: also called 16E6 short; source: synthetic peptide (JPT Peptide Technologies)

[13] = molecular target: T1, MAGI1-2/6 (MBP fusion of the second of …); remark: listed apart in the source
[14] = molecular target: T1, MAGI1-2/6 (MBP fusion of the second of …); remark: listed apart in the source
[15] = molecular target: T2, MAGI1-3/6 (MBP fusion of the third of …); remark: listed apart in the source
[16] = molecular target: T3, SCRIB-3/4 (MBP fusion of the third of …); remark: listed apart in the source
[17] = molecular target: B8; remark: listed apart in the source

B1: NET1_10 (long peptide of Neuroepithelial cell-transforming gene 1 protein: the last ten residues) (peptide)
peptide: Biotin-SGGKRKETLV
notes: also called NET1 long; source: synthetic peptide (JPT Peptide Technologies)
Kd [1]: 3 µM
Kd [2]: 37 µM
Kd [3]: 217 µM
Kd [4]: 63 µM

B2: ABC1_05 (short peptide of ATP-binding cassette sub-family A member 1: GSGAG and the last five residues) (peptide)
peptide: Biotin-GSGAGKESYV
notes: also called ABC1 short; source: synthetic peptide (JPT Peptide Technologies)
Kd [1]: 91 µM
Kd [2]: 26 µM
Kd [3]: 229 µM
Kd [4]: 10 µM

B3: SCRIB-4/4 (MBP fusion of the fourth of the four PDZ domains of SCRIB) (domain or fragment)
chain: GLRELCIQKAPGERLGISIRGGARGHAGNPRDPTDEGIFISKVSPTGAAGRDGRLRVGLRLLEVNQQSLLGLTHGEAVQLLRSVGDTLTVLVCDGFE
notes: also called MBP-PDZ analyte SCRIB-4/4; source: E. coli BL21 DE3, purified (amylose column, Superdex 75 gel filtration)
Kd [5]: 50 µM

B4: ARHGAP6_05 (short peptide of Rho GTPase-activating protein 6: GSGAG and the last five residues) (peptide)
peptide: Biotin-GSGAGPETLV
notes: also called ARHGAP6 short; source: synthetic peptide (JPT Peptide Technologies)
Kd [1]: 2000 µM
Kd [2]: 58 µM
Kd [3]: 216 µM
Kd [4]: 31 µM

B5: MAS_10 (long peptide of Proto-oncogene Mas: the last ten residues) (peptide)
peptide: Biotin-CNTVTVETVV
notes: also called MAS long; source: synthetic peptide (JPT Peptide Technologies)
Kd [6]: 123 µM
Kd [7]: 73 µM
Kd [8]: 3 µM

B6: ABC1_10 (long peptide of ATP-binding cassette sub-family A member 1: the last ten residues) (peptide)
peptide: Biotin-QDEKVKESYV
notes: also called ABC1 long; source: synthetic peptide (JPT Peptide Technologies)
Kd [1]: 45 µM
Kd [2]: 20 µM
Kd [3]: 107 µM
Kd [4]: 8 µM

B7: TMEM215_10 (long peptide of Transmembrane protein 215: the last ten residues) (peptide)
peptide: Biotin-QGRWDHETIV
notes: also called TMEM215 long; source: synthetic peptide (JPT Peptide Technologies)
Kd [9]: 67 µM
Kd [10]: 128 µM
Kd [11]: 9 µM

B8
Kd [12]: 1 µM
Kd [5]: 1 µM

B9: MARCH3_10 (long peptide of E3 ubiquitin-protein ligase MARCH3: the last ten residues) (peptide)
peptide: Biotin-VKRNSKETVV
notes: also called MARCH3 long; source: synthetic peptide (JPT Peptide Technologies)
Kd [13]: 103 µM
Kd [9]: 686 µM
Kd [10]: 100 µM
Kd [11]: 16 µM

B10: VANG2_05 (short peptide of Vang-like protein 2: GSGAG and the last five residues) (peptide)
peptide: Biotin-GSGAGSETSV
notes: also called VANG2 short; source: synthetic peptide (JPT Peptide Technologies)
Kd [10]: 24 µM
Kd [11]: 4 µM

B11: ADAM17_10 (long peptide of Disintegrin and metalloproteinase domain-containing protein 17: the last ten residues) (peptide)
peptide: Biotin-NRVDSKETEC
notes: also called ADAM17 long; source: synthetic peptide (JPT Peptide Technologies)
Kd [10]: 97 µM
Kd [7]: 79 µM
Kd [8]: 8 µM

B12: CYSLTR2_05 (short peptide of Cysteinyl leukotriene receptor 2: GSGAG and the last five residues) (peptide)
peptide: Biotin-GSGAGKETRV
notes: also called CYSLTR2 short; source: synthetic peptide (JPT Peptide Technologies)
Kd [14]: 30 µM
Kd [6]: 21 µM
Kd [7]: 103 µM
Kd [8]: 10 µM

B13: MAS_05 (short peptide of Proto-oncogene Mas: GSGAG and the last five residues) (peptide)
peptide: Biotin-GSGAGVETVV
notes: also called MAS short; source: synthetic peptide (JPT Peptide Technologies)
Kd [13]: 2740 µM
Kd [9]: 90 µM
Kd [10]: 158 µM
Kd [11]: 16 µM

B14: ATP1A1_10 (long peptide of Sodium/potassium-transporting ATPase subunit alpha-1: the last ten residues) (peptide)
peptide: Biotin-GGWVEKETYY
notes: also called ATP1A1 long; source: synthetic peptide (JPT Peptide Technologies)
Kd [7]: 88 µM

B15: MARCH3_05 (short peptide of E3 ubiquitin-protein ligase MARCH3: GSGAG and the last five residues) (peptide)
peptide: Biotin-GSGAGKETVV
notes: also called MARCH3 short; source: synthetic peptide (JPT Peptide Technologies)
Kd [13]: 225 µM
Kd [10]: 46 µM
Kd [11]: 7 µM

B16: ATP1A1_05 (short peptide of Sodium/potassium-transporting ATPase subunit alpha-1: GSGAG and the last five residues) (peptide)
peptide: Biotin-GSGAGKETYY
notes: also called ATP1A1 short; source: synthetic peptide (JPT Peptide Technologies)
Kd [7]: 1280 µM

B17: FZD4_05 (short peptide of Frizzled-4: GSGAG and the last five residues) (peptide)
peptide: Biotin-GSGAGSETVV
notes: also called FZD4 short; source: synthetic peptide (JPT Peptide Technologies)
Kd [13]: 146 µM

B18: TANC1_05 (short peptide of Tetratricopeptide repeat, ankyrin repeat and coiled-coil domain-containing protein 1: GSGAG and the last five residues) (peptide)
peptide: Biotin-GSGAGIESNV
notes: also called TANC1 short; source: synthetic peptide (JPT Peptide Technologies)
Kd [15]: 14 µM
Kd [16]: 498 µM
Kd [17]: 9 µM
